This note sets out measurements from PMC7222407.

In this test the target is Cu,Zn superoxide dismutase (SOD1) from Chionodraco hamatus (Chionodraco hamatus). Nature of the test: SEC; gel exclusion chromatography on a Sephadex G-75 column against standards (bovine serum albumin, ovalbumin, chymotrypsinogen A, cytochrome c); native mass compared with the monomer mass from SDS-PAGE with 2-mercaptoethanol and MALDI-TOF.

Take “Cu,Zn superoxide dismutase (SOD1) from Chionodraco hamatus (enzyme)”: the stoichiometry N is 2.

For orientation: stoichiometry N means the number of molecules, sites or subunits per partner or assembly.
